This experiment concerns the target Flag-AFF1 F1063A+Y1145A+V1146A+V1152A, full length (UniProt P51825).

B1: Flag-AFF1 F1063A+Y1145A+V1146A+V1152A, full length (natural protein)
chain: MAAQSSLYNDDRNLLRIREKERRNQEAHQEKEAFPEKIPLFGEPYKTAKGDELSSRIQNMLGNYEEVKEFLSTKSHTHRLDASENRLGKPKYPLIPDKGSSIPSSSFHTSVHHQSIHTPASGPLSVGNISHNPKMAQPRTEPMPSLHAKSCGPPDSQHLTQDRLGQEGFGSSHHKKGDRRADGDHCASVTDSAPERELSPLISLPSPVPPLSPIHSNQQTLPRTQGSSKVHGSSNNSKGYCPAKSPKDLAVKVHDKETPQDSLVAPAQPPSQTFPPPSLPSKSVAMQQKPTAYVRPMDGQDQAPSESPELKPLPEDYRQQTFEKTDLKVPAKAKLTKLKMPSQSVEQTYSNEVHCVEEILKEMTHSWPPPLTAIHTPSTAEPSKFPFPTKDSQHVSSVTQNQKQYDTSSKTHSNSQQGTSSMLEDDLQLSDSEDSDSEQTPEKPPSSSAPPSAPQSLPEPVASAHSSSAESESTSDSDSSSDSESESSSSDSEENEPLETPAPEPEPPTTNKWQLDNWLTKVSQPAAPPEGPRSTEPPRRHPESKGSSDSATSQEHSESKDPPPKSSSKAPRAPPEAPHPGKRSCQKSPAQQEPPQRQTVGTKQPKKPVKASARAGSRTSLQGEREPGLLPYGSRDQTSKDKPKVKTKGRPRAAASNEPKPAVPPSSEKKKHKSSLPAPSKALSGPEPAKDNVEDRTPEHFALVPLTESQGPPHSGSGSRTSGCRQAVVVQEDSRKDRLPLPLRDTKLLSPLRDTPPPQSLMVKITLDLLSRIPQPPGKGSRQRKAEDKQPPAGKKHSSEKRSSDSSSKLAKKRKGEAERDCDNKKIRLEKEIKSQSSSSSSSHKESSKTKPSRPSSQSSKKEMLPPPPVSSSSQKPAKPALKRSRREADTCGQDPPKSASSTKSNHKDSSIPKQRRVEGKGSRSSSEHKGSSGDTANPFPVPSLPNGNSKPGKPQVKFDKQQADLHMREAKKMKQKAELMTDRVGKAFKYLEAVLSFIECGIATESESQSSKSAYSVYSETVDLIKFIMSLKSFSDATAPTQEKIFAVLCMRCQSILNMAMARCKKDIAIKYSRTLNKHFESSSKVAQAPSPCIASTGTPSPLSPMPSPASSVGSQSSAGSVGSSGVAATISTPVTIQNMTSSAATITSHALTAFDLWEQAEALTRKNKEFFARLSTNVCTLALNSSLVDLVHYTRQGFQQLQELTKTP
With B1, the HIV-LTR-luciferase reporter in NH1 cells, overexpressed Flag-AFF1 mutant against wild-type AFF1 (fold less than wild-type AFF1) worked out at 1.

For the origin of these results see paper PMC7026398, “Structural and functional insight into the effect of AFF4 dimerization on activation of HIV-1 proviral transcription” (Cell Discovery, 2020).
